# The supplement of paper PMC9170038
# Test system: MS2 coat protein
# Assay: apparent KD of MS2 coat protein; higher = weaker reporter binding
# Conditions: Eterna round: R107; input ligand: none
# How it was run: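 In 100 mM Tris-HCl pH 7.5 with 80 mM KCl and 4 mM MgCl2, and without or with constant ligand, SNAP-549-labelled MS2 coat protein was titrated in twofold steps from 0.7 or 1.5 nM to 3 µM. Per-step times went from 0.8–1.5 h down to 10–20 min. The RNA switches were transcribed on-chip from Illumina sequencing clusters, and apparent KD is the per-design median of normalised cluster binding-curve fits.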
row,Sequence,apparent KD of MS2 coat protein
1,AGCGGCUCGAAAGAGUCGCACUCAUGUGAAGGAGCGCCCGUUAGGGCAGGUAGGUCGCACAUGAGGAUCACCCAUGUACCUUCUA [MAT - Exclusion Arginine A - Mod of Eli - D19],0.196 µM
2,UGAUGGUGCUGAAGGAGCGUGUAAGAACAAGAACAUGAGGAUCACCCAUGUAUUAAUUUAACACAGGUAGGUCGCGGUGUUAUUG [11.L],0.0254 µM
3,AGCUCGCUUCCUCAAGCGUCAAAGACGCGUCGAGGACCGGUACGGCCGCCACUCGACCUGAGGAUCACCCGGGUCUAAGCGAGCA [TrypAX 8 #SwitchBubble #AlternativeMS2 #MS2Late #CuTurnoff],0.115 µM
4,AUUUAUUAGACGGCCGCCACUUGAAAGAGACCUCAUAAAUGGGAACAUGAGGAUCACCCAUGUAAGAGGACCGGGUCUAGUAGAU [TryptB-ms2@45],0.567 µM
5,AAUUUUCACGGAAGGAGCGUCACGUAAUUCAUACAUGAGGAUCACCCAUGUUAGUGGUAGAGACAGGUAGGUCGCCGUUAUUUGA [JR_AAArginiB_Sub026],0.0168 µM
6,AUAAUAGGGAUAAUUAGUUUUAGGUCCAGUCGAGGACCGGUACGGCCGCCACUCGUACAGAAAUACAUGAGGAUCACCCAUGUUA [JR_SSTryptoA_Sub005],0.0136 µM
7,UGGUGUAGGGUAAAUAGGCUGAGUACAGAAGGAGCGCGAAUAAACGCAGGUAGGUCGCUGGACUCCACAUGAGGAUCACCCAUGU [Same State Arginine A GF 28],0.0284 µM
8,ACAUGAGGAUCACCCAUGUAUGAUGUUCCUCGAGGACCGGUACGGCCGCCACUCGAACGAGUGGCACGCGAGUGCGCACUCGCGU [aXa],0.0142 µM
9,UCACUCUGGGUGAAUUCCGGAGAUGUGGAAGGAGCGGACGAAAGUCCAGGUAGGUCGCCAUCGGACAUGAGGAUCACCCAUGUAC [Same State - Arginine A (Freestyle 23)],0.089 µM
10,AAUAAUAAGGCGGCCGCCACUAAACAUGAGGAUCACCCAUGUCUCGAGGGCUUGCGUUUGGGAAGUAGGACCGGGCCAAUAAUAA [Exclusion - Tryptophan B (Freestyle 6)],0.0179 µM
11,UCCUACACGGAGACGUGUAGGAGUAAUGAUACCAGCAUGGAGACAUGCCCUUGGCAGCGUUACAUGAGGAUCACCCAUGUGGUGC [ETHA #7],0.0163 µM
12,AAAGGUCGGACGGCCGCCACUGGCUAGGUGGGUUCCGGGAUUACAUGAGGAUCACCCAUGUAUACCAGGACCGGGUUCGCCUCGU [Lageonor],0.0119 µM
13,CUAUGCAGGUCGGCCGCCACUACACACAUGAGGAUCACCCAUGUAGUUACUGGGUGAAGUGGCAGUAGGACCGGGACCUGCACAC [Brourdmod18],0.436 µM
14,UUAAUCAUGUUAGAAAACUAAUAUGCAGAAGGAGCGUGAUAAAACACAGGUAGGUCGCUGAAGGGAACAUGAGGAUCACCCAUGU [AstrosSSArgA#9],0.037 µM
15,AAAAUCCUACCUGAGGAUCACCCAGGUGAAGGAGCGCCCGAAAGGGCAGGUAGGUCGCACCUGAGGAUCACCCUGGUAACCUAAA [ArgEX 11 #DoubleMS2 #OpenEnded #AlternativeMS2],0.048 µM
16,ACAUGAGGAUCACCCAUGUAAAUAACGGAAGGAGCGUGCAAAAGCACAGGUAGGUCGCCGAUAUAAAUAUUGGGUAUUAUAUUAU [AstrosExyArgA#2],0.0336 µM
17,CCGACGAUGACUAUGGGUCAGGAGUGCGCACGAGGACCGGUACGGCCGCCACUCGAGGAGUGGGACAUGAGGAUCACCCAUGUGG [X-TryptA-MS2@65],0.03 µM
18,UGAGUUAGACAAAAGUCUAGCUCUGGUGAAGGAGCGUCCGAAAGGACAGGUAGGUCGCACCACCUGAGGAUCACCCAGGUUCCUA [ArgAS 14 #OpenEnded #AlternativeMS2],0.0421 µM

# Same assay, conditions: Eterna round: R107; input ligand: theophylline 20 uM
row,Sequence,apparent KD of MS2 coat protein
1,AGCGGCUCGAAAGAGUCGCACUCAUGUGAAGGAGCGCCCGUUAGGGCAGGUAGGUCGCACAUGAGGAUCACCCAUGUACCUUCUA [MAT - Exclusion Arginine A - Mod of Eli - D19],0.282 µM
2,AAACAUUGCUCAGAUACCAGACAUGAGGAUCACCCAUGUACCAAGGUACCCGAAAGGAAUGUCCCUUGGCAGCUGAGCAAUGAAA [MAT - Exclusion Theophlline B - Mod of Eli - D20],0.0119 µM
3,GUGGAGACACGAGAUACCAGUCUCUAUAACAUGAGGAUCACCCAUGUAAUGCUCCUCAGGGACCCUUGGCAGCUCAGUAUGAUGA [Exclusion - Theophylline B],0.0545 µM
4,ACAUGAGGAUCACCCAUGUGCAUCACCCGACGAGGACCGGUACGGCCGCCACUCGGGUAUAUAUUUACAUCGGGUGAUUUUACGU [#24 Tryptophan A Same State],0.0559 µM
5,AGCCGGAUUACGGCCGCCACUGUAGACGUGACGAAAGUCGCGUCAACAUGAGGAUCACCCAUGUACAGGACCGGGUGGUCAGGCG [Omei Tryp B SS A v4],0.432 µM
6,CCCUCGUCAACGGCCGCCACUGUGAUUCACUAAGAUAAUAUUGCACAUGAGGAUCACCCAUGUCUCAGGACCGGGUUGGUGUGUC [theeternabot_sameState_MS2_Trp_B_38],0.128 µM
7,GGUAUGUAUUCGGAAACGAAUGCAUACCAACGAGGACCGGUACGGCCGCCACUCGGCCGUGAUCAACAUGAGGAUCACCCAUGUA [Ex Tryptophan A 6],0.0215 µM
8,UGAUGGUGCUGAAGGAGCGUGUAAGAACAAGAACAUGAGGAUCACCCAUGUAUUAAUUUAACACAGGUAGGUCGCGGUGUUAUUG [11.L],0.0425 µM
9,ACAUGAGGAUCACCCAUGUGGCGACUUGAUACCAGACCCGCACUAGUCCCUUGGCAGCAACUACGUGUGGGACACCCAUGUUAAG [lplmullin],0.0227 µM
10,AGCUCGCUUCCUCAAGCGUCAAAGACGCGUCGAGGACCGGUACGGCCGCCACUCGACCUGAGGAUCACCCGGGUCUAAGCGAGCA [TrypAX 8 #SwitchBubble #AlternativeMS2 #MS2Late #CuTurnoff],0.136 µM
11,AUGUCGUUGAAUAUAGCGGCUUGGUGUGAUACCAGAAUGAUCUAAUUCCCUUGGCAGCAUUACAUGAGGAUCACCCAUGUUCAGG [SSTheo A #20],0.028 µM
12,AUUUAUUAGACGGCCGCCACUUGAAAGAGACCUCAUAAAUGGGAACAUGAGGAUCACCCAUGUAAGAGGACCGGGUCUAGUAGAU [TryptB-ms2@45],0.497 µM
13,AAUUUUCACGGAAGGAGCGUCACGUAAUUCAUACAUGAGGAUCACCCAUGUUAGUGGUAGAGACAGGUAGGUCGCCGUUAUUUGA [JR_AAArginiB_Sub026],0.0353 µM
14,AGACAUGAGGAUCACCCAUGUAGCAUGGAUACCAGAUGUAGAUUUGUCCCUUGGCAGCUGUGGUAAAGUGAUGCAUUGCUCCUAG [Exclusion - Theophylline A (Freestyle 4)],0.0615 µM
15,AUAAUAGGGAUAAUUAGUUUUAGGUCCAGUCGAGGACCGGUACGGCCGCCACUCGUACAGAAAUACAUGAGGAUCACCCAUGUUA [JR_SSTryptoA_Sub005],0.0215 µM
16,UGGUGUAGGGUAAAUAGGCUGAGUACAGAAGGAGCGCGAAUAAACGCAGGUAGGUCGCUGGACUCCACAUGAGGAUCACCCAUGU [Same State Arginine A GF 28],0.0341 µM
17,ACAUGAGGAUCACCCAUGUAUGAUGUUCCUCGAGGACCGGUACGGCCGCCACUCGAACGAGUGGCACGCGAGUGCGCACUCGCGU [aXa],0.0196 µM
18,AGCCUCAUACAUGAGGAUCACCCAUGUGAUACCAGUCAGGAAACUGACCCUUGGCAGCGCAUGAGGAUCACCCAUGUGCGAGGCA [Omei Theo A Exc A v2],0.171 µM
19,UCACUCUGGGUGAAUUCCGGAGAUGUGGAAGGAGCGGACGAAAGUCCAGGUAGGUCGCCAUCGGACAUGAGGAUCACCCAUGUAC [Same State - Arginine A (Freestyle 23)],0.098 µM
